Assay [1] addresses tau RD(P301S)-mCerulean3 fusion (tau segment 246 to 378 with the P301S mutation, linker …, mCerulean3) (UniProt P10636). The assay can be described thus: cell-based or functional assay.
Assay [2] deals with tau RD(P301S)-mClover3 fusion (tau segment 246 to 378 with the P301S mutation, linker …, mClover3) (UniProt P10636). The assay can be described thus: cell-based or functional assay.

The record followed here is patent US20240043483A1, “TAU BIOSENSOR CELL LINES” (THE BOARD OF REGENTS OF THE UNIVERSITY OF TEXAS SYSTEM, priority 2020, published 2024).

tau RD(P301S)-mClover3 fusion (tau segment 246 to 378 with the P301S mutation, linker …, mClover3), sequence (P10636 other isoform, or with tags, fused parts or gaps P301S P301S P301S P301S): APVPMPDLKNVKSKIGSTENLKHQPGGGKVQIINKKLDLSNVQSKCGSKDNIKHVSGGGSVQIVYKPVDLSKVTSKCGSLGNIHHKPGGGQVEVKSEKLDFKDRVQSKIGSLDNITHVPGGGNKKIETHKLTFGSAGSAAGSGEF
tau RD(P301S)-mCerulean3 fusion (tau segment 246 to 378 with the P301S mutation, linker …, mCerulean3), sequence (P10636 other isoform, or with tags, fused parts or gaps P301S P301S P301S P301S): as above

For “recombinant tau fibrils made of wild-type full-length (2N4R) tau (from UniProt P10636 2-441)”, the seeding activity (FRET positivity) after TauA immunopurification of fibrils spiked into 1 ml control CSF in assay [1] and in assay [2] was 100 attomolar each time.
